Data: patent US20210163582A1 (APRINOIA THERAPEUTICS, published 2021)

Key:
[1] = biological target: Tau in 6-month-old rTg4510 brain lysate (UniProt P10636-6 2-383, limits assumed); experiment: cell-based or functional assay
[2] = biological target: T1, Tau species in AD (Alzheimer's disease) brain lysate (human, UniProt P10636-8 2-441, limits assumed); experiment: dot-blot on spotted AD total brain lysate, antibody in 2-fold dilutions from 6×10^-8 M
T1 construct: Endogenous Tau of a tissue lysate, not a defined construct; also called AD Tau protein; AD brain homogenate
Description: To facilitate the therapeutic potentials of mAb005 and mAb037, humanization of mAb005 and mAb037 was performed by grafting the complementary determining regions (CDRs) of Variable Heavy chain (VH) and Variable Light chain (VL) into a human IgG4 S228P backbone (no Fab-arm exchange mutant, Silva et al., 2015 JBC). Four point-mutations were introduced in the nearby residues surrounding the CDRs to conserve the functionality of the resulting variants. Dot-blot analysis was performed to determine the EC₅₀ of each variant, compared with the original mouse/chimeric clones as well as to visualize the specificity to AD Tau protein compared with ND Tau protein. […] Dot-blot experiments were performed by spotting of ND and AD total brain lysates in triplicate, and antibody solutions were diluted serially by a dilution factor of 2 from a maximum concentration of 6×10⁻⁸ M. Summary graphs denote Mean±SD of 3 independent experiments for mAb005 and Mean±SD of triplicated wells.

T1 sequence (P10636 other isoform, or with tags, fused parts or gaps limits assumed): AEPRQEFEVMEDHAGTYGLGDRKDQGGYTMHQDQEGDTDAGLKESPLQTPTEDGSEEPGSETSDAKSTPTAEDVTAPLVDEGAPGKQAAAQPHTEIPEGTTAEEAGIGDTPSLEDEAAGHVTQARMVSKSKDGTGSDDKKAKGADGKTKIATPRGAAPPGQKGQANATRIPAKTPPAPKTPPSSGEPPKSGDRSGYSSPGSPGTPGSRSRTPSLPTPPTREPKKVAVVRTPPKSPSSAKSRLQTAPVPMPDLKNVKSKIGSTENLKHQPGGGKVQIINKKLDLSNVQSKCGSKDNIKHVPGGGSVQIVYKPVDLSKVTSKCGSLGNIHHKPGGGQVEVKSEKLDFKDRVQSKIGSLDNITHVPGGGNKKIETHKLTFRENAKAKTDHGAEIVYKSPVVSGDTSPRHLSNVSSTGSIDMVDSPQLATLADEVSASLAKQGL
Chain of Tau in 6-month-old rTg4510 brain lysate (P10636 other isoform, or with tags, fused parts or gaps limits assumed): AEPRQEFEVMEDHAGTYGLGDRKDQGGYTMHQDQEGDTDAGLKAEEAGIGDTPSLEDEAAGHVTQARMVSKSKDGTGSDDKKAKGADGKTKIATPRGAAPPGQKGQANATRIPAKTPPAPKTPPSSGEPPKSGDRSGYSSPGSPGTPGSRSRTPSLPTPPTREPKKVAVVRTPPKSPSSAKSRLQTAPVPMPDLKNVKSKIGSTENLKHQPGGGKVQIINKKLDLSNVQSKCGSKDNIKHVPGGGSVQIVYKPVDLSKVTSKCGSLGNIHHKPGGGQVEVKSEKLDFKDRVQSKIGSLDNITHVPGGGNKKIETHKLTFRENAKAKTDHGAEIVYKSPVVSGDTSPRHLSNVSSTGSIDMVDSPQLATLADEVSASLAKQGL

B1: mAb005 (antibody, V domains shown)
VH: EVQLVESGGGLVKPGGSLKLSCAASGFTFSDYGMHWVRQAPEKGLEWVAYSNSDSTTIYYADTVKGRFTISRDNAKSTLFLQMTSLRSEDTAMYYCGRSYYSNYVDYWGQGTTLTVSS
VL: DIVMTQIPLSLPVSLGDQASISCRSSQSLVHSNGNTYLHWYLQKPGQSPKLLIYKVSNRFSGVPDRFSGSGSGTDFTLKISRVEAEDLGVYFCFQSTHVPPTFGGGTKLEIK
notes: Mouse monoclonal from hybridoma; also called mouse mAb005; original mouse clone (of mAb005)
EC50 of inhibition of Tau seeding (Tau spots per cell in Tau-LM reporter cells) [1]: 72.2 nM | EC50 [2]: 0.4 nM

B2: Humanized mAb005 (antibody, V domains shown)
VH: EVQLVESGGGLVQPGGSLRLSCAASGFTFSDYGMHWVRQAPGKGLEWVAYSNSDSTTIYYADTVKGRFTISRDNAKNSLYLQMNSLRAEDTAVYYCGRSYYSNYVDYWGQGTLVTVSS
VL: DVVMTQSPLSLPVTLGQPASISCRSSQSLVHSNGNTYLHWYLQRPGQSPRLLIYKVSNRFSGVPDRFSGSGSGTDFTLKISRVEAEDVGVYFCFQSTHVPPTFGQGTKLEIK
notes: also called humanized variant of mAb005
EC50 [2]: 0.43 nM

B3: Humanized mAb037 (antibody, V domains shown)
VH: QVQLVQSGAEVKKPGASVKVSCKASGYTFTDYNMDWVRQAHGQGLEWIGDINPNTGGTIYNQKFKGRATLTVDTSISTAYMELSRLRSDDTAVYYCAGEGPYYYGTTHPFAYWGQGTLVTVSS
VL: DVVMTQSPLSLPVTLGQPASISCKSSQSLLYSNGKTYLNWLLQRPGQSPRRLIYLVSKLDSGVPDRFSGSGSGTDFTLKISRVEAEDVGVYYCVQGTHFPQTFGGGTKLEIK
notes: also called humanized variant of mAb037
EC50 [2]: 0.95 nM

B4: mAb037 (antibody, V domains shown)
VH: EVQLQQSGPELVKPGASVKIPCKASGYTFTDYNMDWVKQSHGKSLEWIGDINPNTGGTIYNQKFKGKATLTVDKSSSTAYMELRSLTSEDTAVYYCAGEGPYYYGTTHPFAYWGQGTLVTVSA
VL: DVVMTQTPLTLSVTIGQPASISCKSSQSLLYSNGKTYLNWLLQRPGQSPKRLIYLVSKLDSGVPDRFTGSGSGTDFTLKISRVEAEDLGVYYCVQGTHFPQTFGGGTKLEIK
notes: Mouse monoclonal from hybridoma; also called mouse mAb037; original mouse clone (of mAb037)
EC50 of inhibition of Tau seeding (Tau spots per cell in Tau-LM reporter cells) [1]: 22.9 nM | EC50 [2]: 0.54 nM
